Laboratory results as given in patent US20140087995A1 (published 2014).
Numbered stars: 1 amine (or outer) side, 2 acyl side, 3 side chain; on linkers, the order of the positions; unused ones are H or OH. Bridge positions count the residues as written; N and C are the ends. Side chains are listed from the residue outwards. Ends that are not written are not given here. * marks the point of attachment. C20 diacid = O=C(O)CCCCCCCCCCCCCCCCCCC(=O)*; γGlu = O=C(O)[C@H](CCC(=O)[*:2])N[*:1]

T1: rat amylin receptor (rat calcitonin receptor + rat RAMP 3) (rat, UniProt P32214 25-516; Q9JJ73 23-147)
T1 construct: whole, on cells; Membranes of transiently transfected BHK tk'ts 13 cells; also called rAmylin-R; rat amylin 3(a) receptor
T1 sequence (looked up) 1: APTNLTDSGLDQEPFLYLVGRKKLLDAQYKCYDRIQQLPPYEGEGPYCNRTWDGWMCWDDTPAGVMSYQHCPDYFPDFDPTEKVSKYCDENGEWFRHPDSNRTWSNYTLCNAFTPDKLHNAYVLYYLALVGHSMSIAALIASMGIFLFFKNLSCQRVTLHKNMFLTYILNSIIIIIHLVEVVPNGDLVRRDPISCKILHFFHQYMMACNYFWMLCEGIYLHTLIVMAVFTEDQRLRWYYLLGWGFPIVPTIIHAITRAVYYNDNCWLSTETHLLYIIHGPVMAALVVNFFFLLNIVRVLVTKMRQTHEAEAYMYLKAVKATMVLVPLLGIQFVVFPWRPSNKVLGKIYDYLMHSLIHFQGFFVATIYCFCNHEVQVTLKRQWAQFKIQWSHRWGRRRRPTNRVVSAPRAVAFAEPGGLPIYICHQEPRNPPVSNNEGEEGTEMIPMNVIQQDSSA
T1 sequence (looked up) 2: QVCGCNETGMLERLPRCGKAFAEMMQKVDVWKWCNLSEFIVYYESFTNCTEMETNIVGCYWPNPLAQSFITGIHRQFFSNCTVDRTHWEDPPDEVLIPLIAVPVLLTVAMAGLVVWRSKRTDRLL

T2: rat calcitonin receptor (rat, UniProt P32214 25-516)
T2 construct: whole, on cells; Membranes of transiently transfected BHK tk'ts 13 cells; also called rCTR; rat calcitonin (a) receptor
T2 sequence (looked up): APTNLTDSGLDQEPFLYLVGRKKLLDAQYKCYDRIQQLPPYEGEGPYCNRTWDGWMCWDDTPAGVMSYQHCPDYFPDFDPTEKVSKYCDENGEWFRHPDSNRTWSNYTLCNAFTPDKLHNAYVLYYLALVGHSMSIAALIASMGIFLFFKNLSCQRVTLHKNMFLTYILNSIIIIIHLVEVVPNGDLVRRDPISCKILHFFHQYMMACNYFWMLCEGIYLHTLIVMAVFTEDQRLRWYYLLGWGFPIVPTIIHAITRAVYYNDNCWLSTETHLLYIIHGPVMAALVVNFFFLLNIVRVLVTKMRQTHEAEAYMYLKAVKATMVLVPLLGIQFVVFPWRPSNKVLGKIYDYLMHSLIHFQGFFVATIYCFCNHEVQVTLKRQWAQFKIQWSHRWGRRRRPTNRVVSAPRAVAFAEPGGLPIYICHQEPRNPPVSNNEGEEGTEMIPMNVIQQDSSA

T3: human calcitonin receptor (human, UniProt P30988 25-474)
T3 construct: whole, on cells; Membranes of stably transfected cells; also called hCTR; hCT
T3 sequence (looked up): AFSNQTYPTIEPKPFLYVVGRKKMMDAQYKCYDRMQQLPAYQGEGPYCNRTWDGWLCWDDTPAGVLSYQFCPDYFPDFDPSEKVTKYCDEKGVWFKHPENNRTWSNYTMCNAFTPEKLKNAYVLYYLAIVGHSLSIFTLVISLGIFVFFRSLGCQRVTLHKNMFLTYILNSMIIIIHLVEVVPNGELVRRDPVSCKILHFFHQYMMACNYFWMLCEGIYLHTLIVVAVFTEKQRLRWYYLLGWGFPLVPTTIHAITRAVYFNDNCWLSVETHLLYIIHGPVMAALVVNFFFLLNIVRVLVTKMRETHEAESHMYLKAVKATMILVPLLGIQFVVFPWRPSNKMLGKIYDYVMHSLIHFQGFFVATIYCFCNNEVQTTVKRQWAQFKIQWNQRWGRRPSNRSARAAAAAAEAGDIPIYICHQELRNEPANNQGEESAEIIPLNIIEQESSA


Legend:
[1] = target: T1, rat amylin receptor (rat calcitonin …); experiment: SPA competition with 125I-rat amylin on membranes of BHK tk'ts 13 cells with rat calcitonin receptor + rat RAMP3 (Assay VI)
rat calcitonin receptor [2] = target: T2, rat calcitonin receptor; experiment: SPA competition with 125I-calcitonin on membranes of BHK tk'ts 13 cells with rat calcitonin receptor (Assay VIII)
rat calcitonin receptor [3] = target: T2, rat calcitonin receptor; experiment: ratio of IC50 on rat calcitonin receptor to IC50 on rat amylin receptor (reference m40)
[4] = target: T3, human calcitonin receptor; experiment: ratio of IC50 on human calcitonin receptor to IC50 on human amylin receptor (reference m42), SPA competition
Summary of the method: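 Scintillation proximity competition binding on cell membranes at 35 ng/μL with SPA beads, in 50 mM Hepes pH 7.4, 1 mM CaCl2, 5 mM MgCl₂, 0.1% OA, 0.02% Tween20. Incubated 120 min at 25° C with shaking. IC₅₀ from one-site competition fit.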

Binder	IC50 [1] [nM]	IC50 (rat calcitonin receptor [2]) [nM]	Ratio rCT/rAmylin binding (rat calcitonin receptor [3])	Ratio hCT/hAmylin binding [4]
K([γGlu-C20 diacid])CNTATCATQRLAEFLRHSSPNFGAIPSSTNVGSHTY-NH2 (disulfide 2-7; N-terminus assumed; SMILES CC[C@H](C)[C@H](NC(=O)[C@H](C)NC(=O)CNC(=O)[C@H](Cc1ccccc1)NC(=O)[C@H](CC(N)=O)NC(=O)[C@@H]1CCCN1C(=O)[C@H](CO)NC(=O)[C@H](CO)NC(=O)[C@H](Cc1c[nH]cn1)NC(=O)[C@H](CCCNC(=N)N)NC(=O)[C@H](CC(C)C)NC(=O)[C@H](Cc1ccccc1)NC(=O)[C@H](CCC(=O)O)NC(=O)[C@H](C)NC(=O)[C@H](CC(C)C)NC(=O)[C@H](CCCNC(=N)N)NC(=O)[C@H](CCC(N)=O)NC(=O)[C@@H](NC(=O)[C@H](C)NC(=O)[C@@H]1CSSC[C@H](NC(=O)[C@@H](N)CCCCNC(=O)CC[C@H](NC(=O)CCCCCCCCCCCCCCCCCCC(=O)O)C(=O)O)C(=O)N[C@@H](CC(N)=O)C(=O)N[C@@H]([C@@H](C)O)C(=O)N[C@@H](C)C(=O)N[C@@H]([C@@H](C)O)C(=O)N1)[C@@H](C)O)C(=O)N1CCC[C@H]1C(=O)N[C@@H](CO)C(=O)N[C@@H](CO)C(=O)N[C@H](C(=O)N[C@@H](CC(N)=O)C(=O)N[C@H](C(=O)NCC(=O)N[C@@H](CO)C(=O)N[C@@H](Cc1c[nH]cn1)C(=O)N[C@H](C(=O)N[C@@H](Cc1ccc(O)cc1)C(N)=O)[C@@H](C)O)C(C)C)[C@@H](C)O, Synthetic acylated analogue of human amylin)	1.16	26.3	22.7	26.4
K([γGlu-C20 diacid])CNTATCATQRLAEFLRHSSPNFGAIPSSTNVGPRTY-NH2 (disulfide 2-7; N-terminus assumed; SMILES CC[C@H](C)[C@H](NC(=O)[C@H](C)NC(=O)CNC(=O)[C@H](Cc1ccccc1)NC(=O)[C@H](CC(N)=O)NC(=O)[C@@H]1CCCN1C(=O)[C@H](CO)NC(=O)[C@H](CO)NC(=O)[C@H](Cc1c[nH]cn1)NC(=O)[C@H](CCCNC(=N)N)NC(=O)[C@H](CC(C)C)NC(=O)[C@H](Cc1ccccc1)NC(=O)[C@H](CCC(=O)O)NC(=O)[C@H](C)NC(=O)[C@H](CC(C)C)NC(=O)[C@H](CCCNC(=N)N)NC(=O)[C@H](CCC(N)=O)NC(=O)[C@@H](NC(=O)[C@H](C)NC(=O)[C@@H]1CSSC[C@H](NC(=O)[C@@H](N)CCCCNC(=O)CC[C@H](NC(=O)CCCCCCCCCCCCCCCCCCC(=O)O)C(=O)O)C(=O)N[C@@H](CC(N)=O)C(=O)N[C@@H]([C@@H](C)O)C(=O)N[C@@H](C)C(=O)N[C@@H]([C@@H](C)O)C(=O)N1)[C@@H](C)O)C(=O)N1CCC[C@H]1C(=O)N[C@@H](CO)C(=O)N[C@@H](CO)C(=O)N[C@H](C(=O)N[C@@H](CC(N)=O)C(=O)N[C@H](C(=O)NCC(=O)N1CCC[C@H]1C(=O)N[C@@H](CCCNC(=N)N)C(=O)N[C@H](C(=O)N[C@@H](Cc1ccc(O)cc1)C(N)=O)[C@@H](C)O)C(C)C)[C@@H](C)O, Synthetic acylated analogue of human amylin)	0.339	15.4	45.5	38.6
K([γGlu-C20 diacid])CNTATCATQRLAEFLRHSSPNFGAIPSSTNVGPHTY-NH2 (disulfide 2-7, Synthetic acylated analogue of human amylin)	0.104	5.43	52.2	21.2
K([γGlu-C20 diacid])CNTATCATQRLAHFLRHSSPNFGAIPSSTPVGPNTY-NH2 (disulfide 2-7; N-terminus assumed; SMILES CC[C@H](C)[C@H](NC(=O)[C@H](C)NC(=O)CNC(=O)[C@H](Cc1ccccc1)NC(=O)[C@H](CC(N)=O)NC(=O)[C@@H]1CCCN1C(=O)[C@H](CO)NC(=O)[C@H](CO)NC(=O)[C@H](Cc1c[nH]cn1)NC(=O)[C@H](CCCNC(=N)N)NC(=O)[C@H](CC(C)C)NC(=O)[C@H](Cc1ccccc1)NC(=O)[C@H](Cc1c[nH]cn1)NC(=O)[C@H](C)NC(=O)[C@H](CC(C)C)NC(=O)[C@H](CCCNC(=N)N)NC(=O)[C@H](CCC(N)=O)NC(=O)[C@@H](NC(=O)[C@H](C)NC(=O)[C@@H]1CSSC[C@H](NC(=O)[C@@H](N)CCCCNC(=O)CC[C@H](NC(=O)CCCCCCCCCCCCCCCCCCC(=O)O)C(=O)O)C(=O)N[C@@H](CC(N)=O)C(=O)N[C@@H]([C@@H](C)O)C(=O)N[C@@H](C)C(=O)N[C@@H]([C@@H](C)O)C(=O)N1)[C@@H](C)O)C(=O)N1CCC[C@H]1C(=O)N[C@@H](CO)C(=O)N[C@@H](CO)C(=O)N[C@H](C(=O)N1CCC[C@H]1C(=O)N[C@H](C(=O)NCC(=O)N1CCC[C@H]1C(=O)N[C@@H](CC(N)=O)C(=O)N[C@H](C(=O)N[C@@H](Cc1ccc(O)cc1)C(N)=O)[C@@H](C)O)C(C)C)[C@@H](C)O, Synthetic acylated analogue of human amylin)	0.125	9.05	72.4	24.8
K([γGlu-γGlu-C20 diacid])CNTATCATQRLANFLRHSSPNFGAIPSSTPVGPRTY-NH2 (disulfide 2-7; N-terminus assumed; SMILES CC[C@H](C)[C@H](NC(=O)[C@H](C)NC(=O)CNC(=O)[C@H](Cc1ccccc1)NC(=O)[C@H](CC(N)=O)NC(=O)[C@@H]1CCCN1C(=O)[C@H](CO)NC(=O)[C@H](CO)NC(=O)[C@H](Cc1c[nH]cn1)NC(=O)[C@H](CCCNC(=N)N)NC(=O)[C@H](CC(C)C)NC(=O)[C@H](Cc1ccccc1)NC(=O)[C@H](CC(N)=O)NC(=O)[C@H](C)NC(=O)[C@H](CC(C)C)NC(=O)[C@H](CCCNC(=N)N)NC(=O)[C@H](CCC(N)=O)NC(=O)[C@@H](NC(=O)[C@H](C)NC(=O)[C@@H]1CSSC[C@H](NC(=O)[C@@H](N)CCCCNC(=O)CC[C@H](NC(=O)CC[C@H](NC(=O)CCCCCCCCCCCCCCCCCCC(=O)O)C(=O)O)C(=O)O)C(=O)N[C@@H](CC(N)=O)C(=O)N[C@@H]([C@@H](C)O)C(=O)N[C@@H](C)C(=O)N[C@@H]([C@@H](C)O)C(=O)N1)[C@@H](C)O)C(=O)N1CCC[C@H]1C(=O)N[C@@H](CO)C(=O)N[C@@H](CO)C(=O)N[C@H](C(=O)N1CCC[C@H]1C(=O)N[C@H](C(=O)NCC(=O)N1CCC[C@H]1C(=O)N[C@@H](CCCNC(=N)N)C(=O)N[C@H](C(=O)N[C@@H](Cc1ccc(O)cc1)C(N)=O)[C@@H](C)O)C(C)C)[C@@H](C)O, Synthetic acylated analogue of human amylin)	0.381	52.4	137	48.6
K([γGlu-γGlu-C20 diacid])CNTATCATQRLADFLRHSSPNFGAIPSSTNVGPRTY-NH2 (disulfide 2-7, Synthetic acylated analogue of human amylin; also called compound 130)	0.93	223	240	280
K([γGlu-γGlu-C20 diacid])CNTATCATQRLADFLRHSSPNFGAIPSSTNVGPETY-NH2 (disulfide 2-7, Synthetic acylated analogue of human amylin)	0.324	31.9	98.5	49.8
